In PMC3923644 one finds binding result and Kd data, which are given here for 5 molecules.

Where two headings read alike, the source gives them in different places.

In series [1] the target is T1, APE1 WT (Homo sapiens, UniProt P27695 1-318). The series is described as follows: EMSA.
Series [2] deals with T2, APE1 NΔ33 (Homo sapiens, UniProt P27695 34-318, del1-33). The series is described as follows: EMSA.
For series [3], the target named is T1, APE1 WT. The experiment in a line: SPR.
The target of series [4] is T2, APE1 NΔ33. The series is described as follows: SPR.
Series [5] concerns the target T1, APE1 WT. The experiment in a line: SPR. This is another data set of the same source.

T2 sequence (P27695 34-318, stated change not applied): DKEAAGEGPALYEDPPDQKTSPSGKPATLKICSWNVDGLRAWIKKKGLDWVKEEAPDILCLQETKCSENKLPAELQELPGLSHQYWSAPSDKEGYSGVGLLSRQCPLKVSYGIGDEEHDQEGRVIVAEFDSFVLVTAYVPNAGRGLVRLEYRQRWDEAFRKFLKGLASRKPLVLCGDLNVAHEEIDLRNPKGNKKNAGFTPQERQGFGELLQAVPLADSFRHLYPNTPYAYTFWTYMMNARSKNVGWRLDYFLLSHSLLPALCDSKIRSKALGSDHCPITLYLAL
T1 sequence (P27695 whole entry): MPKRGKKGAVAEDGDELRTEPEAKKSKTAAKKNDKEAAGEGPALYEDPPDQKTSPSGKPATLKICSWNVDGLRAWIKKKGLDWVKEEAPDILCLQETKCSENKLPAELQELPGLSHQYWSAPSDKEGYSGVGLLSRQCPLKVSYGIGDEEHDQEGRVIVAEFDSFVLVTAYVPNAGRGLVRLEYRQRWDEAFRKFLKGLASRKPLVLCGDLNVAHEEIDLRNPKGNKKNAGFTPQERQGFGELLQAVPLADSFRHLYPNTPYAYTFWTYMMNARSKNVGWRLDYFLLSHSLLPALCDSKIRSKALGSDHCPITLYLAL

B1: nCaRE-B SIRT1-A (dsDNA)
DNA 1: TTTTTGAGACAGAGTTTCACTCTTG
DNA 2: CAAGAGTGAAACTCTGTCTCAAAAA
As for B1, the binding result was “binds” with APE1 WT [1] and “no binding” with APE1 NΔ33 [2].

B2: nCaRE-B SIRT1-B (dsDNA)
DNA 1: TTTTTGAGACGGAGTTTCGCTCTTG
DNA 2: CAAGAGCGAAACTCCGTCTCAAAAA
For B2, the binding result with APE1 NΔ33 [2] is “no binding”.

B3: nCaRE-B SIRT1-B (biotinylated) (dsDNA)
DNA 1: TTTTTGAGACGGAGTTTCGCTCTTG
DNA 2: CAAGAGCGAAACTCCGTCTCAAAAA
On to B3, for which the Kd with APE1 WT [3] worked out at 3.9 ± 0.08 µM. For the same molecule, in the series with APE1 NΔ33 [4], the binding result is “no binding”.

B4: nCaRE-B SIRT1-B mutated (biotinylated) (dsDNA)
DNA 1: TTTTTGCTAAGGAGCGTCGCTCTTG
DNA 2: CAAGAGCGACGCTCCTTAGCAAAAA
As to B4, the Kd with APE1 WT [5] was 119 ± 8 µM.

Turning to TTTTTTTTTTTTTTTTTTTTTTTT (ssDNA) [poly(dT) 24-mer], the Kd with APE1 WT [3] was 308 ± 3 µM. The binding result in the series with APE1 NΔ33 [4] is “no binding”.
